Here are results for 1 protein from FireProtDB (doi:10.1016/s0014-5793(99)01395-2).

Usually Tm stands for the temperature at the midpoint of the melting transition.

The conditions of the data set: Escherichia phage lambda, pH 7, Thermal, Fluorescence, phosphate buffer 100 mM, reversible: yes, whole UniProt chain shown.

B1: Endolysin wild type, P03706 (protein)
chain: MVEINNQRKAFLDMLAWSEGTDNGRQKTRNHGYDVIVGGELFTDYSDHPRKLVTLNPKLKSTGAGRYQLLSRWWDAYRKQLGLKDFSPKSQDAVALQQIKERGALPMIDRGDIRQAIDRCSNIWASLPGAGYGQFEHKADSLIAKFKEAGGTVREIDV
B1: the melting temperature (Tm) turned out to be 52.3 °C and the “unfolding enthalpy (van 't Hoff)” value was found to be 113 kcal/mol. Besides, for the setting “25 °C”, the unfolding free energy is 7.1 kcal/mol.
